Data taken from US6072028, “EPR-1 proteins, polypeptides, and nucleic acid molecules encoding same” (The Scripps Research Institute, dated 2000).

Key:
[1] = target: T1, coagulation factor Xa (human, UniProt P00742); experiment: saturation binding of ^125 I-factor Xa (0.45-36 nM) to EPR-1 CHO transfectants, 2.5 mM CaCl2
Procedure: In FIG. A, wild-type (WT) CHO cells (closed squares) or EPR-1 CHO transfectants (closed circles) were incubated with increasing concentrations of ^125I-factor Xa (0.45–36 nM) for 15 minutes at 22° C. In the presence of 2.5 mM CaCl_2. Non-specific binding was assessed in the presence of a 50-fold molar excess of unlabeled factor Xa and was subtracted from the total to calculate net specific binding. Data are the mean±S.E.M. of two independent experiments. ^125I-factor Xa bound at saturation (27 nM) to EPR-1 CHO transfectants corresponded to 729,000±102,000 molecules/cell. […] Thrombin formation in the presence or in the absence of anti-EPR-1 mAb 9D4 (Altieri, et al., Id. (1990)) was assessed by a sensitive clotting assay as described (Altieri, et al., Id. (1989)). Data are expressed as mean±S.E.M. of two independent experiments.
The experimental procedures for the isolation, characterization and ^125I-labeling of factor Xa have been described previously (Altieri, et al., Id. (1989)). […] In the presence of 2.5 mM CaCl_2, before separation of free from cell-associated radioactivity by centrifugation through mixture of silicone oil (Dow Corning, New Bedford, Mass.) at 15,000 xg for 5 minutes at 22° C. Non-specific binding was assessed in the presence of a 50-fold molar excess of unlabeled factor Xa and was subtracted from the total to calculate net specific binding. […]

[2] = target: T1, coagulation factor Xa; experiment: saturation binding of ^125 I-Xa to HuT 78* cells, 2.5 mM CaCl2
Procedure: The procedures for the isolation, characterization, and ^125I-labelling of factor Xa were as described previously by Altieri, et al., *J. Biol. Chem.* 264: 2969 (1989). The interaction of ^125I-Xa with HuT 78* cells was analyzed by incubating increasing concentrations of ^125I-Xa (0.45 to 36 nM) with cell suspension at 1.5 to 2×10^7/ml in the presence of 2.5 mM CaCl_2 for 20 minutes at room temperature. At the end of the incubation, the reaction was terminated by centrifugation of aliquots of the cell suspension at 12,000×g for 2 minutes through a mixture of silicone oil to separate free from cell-associated radioactivity. Nonspecific binding was quantified in the presence of 50-fold molar excess of unlabelled factor Xa added at the start of the incubation reaction, and was subtracted from the total to yield net specific binding. In some studies, aliquots of HuT 78* cells were preincubated with 50 µg/ml of mAb 9D4 for 30 minutes at room temperature before the addition of serial concentrations of ^125I-Xa.
HuT 78* cells reacting with the rabbit polyclonal antiserum B78.9 were isolated to 94.2% purity by fluorescence sorting and cloned by limiting dilution. […] The reaction was terminated by centrifugation through mixture of silicone oils and ^125I-Xa specific binding to HuT 78* cells was calculated in the presence or absence of anti-EPR-1 mAb 9D4.

Kd [1]: 10 to 15 nM
Kd [2]: 10 to 20 nM
B1: Effector cell Protease Receptor-1 (EPR-1), on the cell surface (receptor)
chain: MTSRGFQRSCNNPPCSSMTGRRANQIHHLTPDFSLRELLPPKKAGTWADCVSPPCGERDRCEGWADRHTACSSPASTCQVHTQDCDSLNNMRSRHIHCGRLCHANKAVSSSKRDTAFFLPHFSPGKPGNQNSKNEPPKKRERERSSHCYPAAPAAQAEAPLVPLSRQNKSTVETSNLKMLISFPKTLLRGPQEGWWHQGINPGSGAATLGPGSSERPQSIEASCSMARRTFFAVSSNSFFLLLVSFAILFLALSLSSFKNSPRVNSSNCFLTERKAQPDECFLCSSMGSSSGSQPSSSLKQKKHWAKSGSFSVGQWMKPASAIRSGVQRSPPRRASS
